Data taken from publication PMC10578488 (RNA, 2023).

B1: Lsm10-MBP/Lsm11 heterodimer (wild-type, full-length Lsm11) (complex, human)
chain 1: MAVSHSVKERTISENSLIILLQGLQGRVTTVDLRDESVAHGRIDNVDAFMNIRLAKVTYTDRWGHQVKLDDLFVTGRNVRYVHIPDDVNITSTIEQQLQIIHRVRNFGGKGQGRWEFPPKNCK
chain 2: MEERERGARSAGAGSPARPPSPRLDVSSDSFDPLLALYAPRLPPIPYPNAPCFNNVAEYESFLRTGVRGGGRGRGRARGAAAGSGVPAAPGPSGRTRRRPDAPAPDPERIQRLRRLMVAKEEGDGAAGAGRRGPGRSRKAPRNVLTRMPLHEGSPLGELHRCIREGVKVNVHIRTFKGLRGVCTGFLVAFDKFWNMALTDVDETYRKPVLGKAYERDSSLTLTRLFDRLKLQDSSKKEADSKSAVEDSTLSRYSQTSTWKLASVWGRADTGRGSHKRSRSVPSSLQASAREESRSELSGRTTRTDGSSVGGTFSRATTLSRGQSRKKKRKPKVDYQQVFTRHINQIFIRGENVLLVHLAQ
notes: Lsm10, human, full length; Lsm11, human, full length, 360 amino acids; The results call the fusion Lsm10-MBP, the methods say MBP was added to the amino terminus of Lsm10; also called Lsm10/11; 10/11; source: baculovirus-expressed, recombinant; not shown: MBP, N-terminal, kept
B2: recombinant mouse pICln (natural protein, UniProt Q61189 1-236, looked up)
chain: MSFLKSFPPPGSADGLRLQQPDTEAVLNGKGLGTGTLYIAESRLSWLDGSGLGFSLEYPTISLHAVSRDPNAYPQEHLYVMVNAKLGEESKEPPSDEDEEDNDDIEPISEFRFVPSDKSALEAMFTAMCECQALHPDPEDEDSDDYDGEEYDVEAHEQGQGDIPTFYTYEEGLSHLTAEGQATLERLEGMLSQSVSSQYNMAGVRTEDSVRNYEDGMEVETTPTVAGQFEDADVDH
notes: pICln, mouse, full length; source: E. coli Rosetta, purified (nickel beads, MonoQ)
B3: Lsm10/11ΔL heterodimer (MBP-Lsm10 with Lsm11 lacking the internal loop, amino acids 211-322) (complex, human)
chain 1: B1 chain 1
chain 2: MEERERGARSAGAGSPARPPSPRLDVSSDSFDPLLALYAPRLPPIPYPNAPCFNNVAEYESFLRTGVRGGGRGRGRARGAAAGSGVPAAPGPSGRTRRRPDAPAPDPERIQRLRRLMVAKEEGDGAAGAGRRGPGRSRKAPRNVLTRMPLHEGSPLGELHRCIREGVKVNVHIRTFKGLRGVCTGFLVAFDKFWNMALTDVDETYRKPVLQSRKKKRKPKVDYQQVFTRHINQIFIRGENVLLVHLAQ
notes: Lsm10, human, full length; Lsm11, human, lacking residues 211-322 (internal loop); Purified on nickel beads; also called Lsm10/11ΔL dimer; Lsm11ΔL; source: High5 insect cells (baculovirus), purified (nickel beads, HiTrap Heparin); not shown: MBP, N-terminal, kept
B4: Lsm11 lacking residues 211-322 (chain of the Lsm10/11 heterodimer) (natural protein, human, UniProt P83369 1-360, looked up)
chain: B3 chain 2
notes: Lsm11, human, lacking residues 211-322 (internal loop); The Lsm11 chain of m2, written alone for the pairs Lsm11-PRMT5 and Lsm11-Lsm10; also called Lsm11ΔL; source: High5 insect cells (baculovirus), coexpressed with MBP-Lsm10, purified (nickel beads, HiTrap Heparin)

Legend:
Conditions in all cases: both partners purified
[1] = target: T1, recombinant PRMT5/MEP50 complex (human, UniProt O14744 1-637; Q9BQA1 1-342); experiment: pull-down; recombinant PRMT5/MEP50 mixed with MBP-Lsm10/11 heterodimer (molar ratio 1:1) without pICln, collected on amylose beads via MBP on Lsm10; silver staining
T1 construct: PRMT5, human, full length; MEP50, human, full length; also called PRMT5/MEP50 heterooctamer; PRMT5/MEP50 heterodimer; source: High5 insect cells (baculovirus), coexpressed, purified (nickel beads, Superdex 200); copies: 4 + 4

[2] = target: T1, recombinant PRMT5/MEP50 complex; experiment: cryo-EM structure; PRMT5/MEP50, Lsm10/11 and pICln mixed 1:1:1.2, complex purified on Superose 6 (25 mM Tris pH 7.5, 150 mM NaCl, 2 mM DTT); map at 2.86 Å, C1 symmetry
[3] = target: T2, recombinant human PRMT5 (chain of the PRMT5/MEP50 complex) (human, UniProt O14744 1-637); experiment: as above
T2 construct: PRMT5, human, full length; The PRMT5 chain of m17, written alone for the pairs seen in the cryo-EM structures; source: High5 insect cells (baculovirus), coexpressed with MEP50, purified (nickel beads, Superdex 200)

[4] = target: B1; experiment: pull-down; recombinant PRMT5/MEP50 mixed with MBP-Lsm10/11 heterodimer (molar ratio 1:1) in the presence of recombinant pICln, collected on amylose beads via MBP on Lsm10; silver staining

T1 sequence (O14744 whole entry, chain 1 of 2): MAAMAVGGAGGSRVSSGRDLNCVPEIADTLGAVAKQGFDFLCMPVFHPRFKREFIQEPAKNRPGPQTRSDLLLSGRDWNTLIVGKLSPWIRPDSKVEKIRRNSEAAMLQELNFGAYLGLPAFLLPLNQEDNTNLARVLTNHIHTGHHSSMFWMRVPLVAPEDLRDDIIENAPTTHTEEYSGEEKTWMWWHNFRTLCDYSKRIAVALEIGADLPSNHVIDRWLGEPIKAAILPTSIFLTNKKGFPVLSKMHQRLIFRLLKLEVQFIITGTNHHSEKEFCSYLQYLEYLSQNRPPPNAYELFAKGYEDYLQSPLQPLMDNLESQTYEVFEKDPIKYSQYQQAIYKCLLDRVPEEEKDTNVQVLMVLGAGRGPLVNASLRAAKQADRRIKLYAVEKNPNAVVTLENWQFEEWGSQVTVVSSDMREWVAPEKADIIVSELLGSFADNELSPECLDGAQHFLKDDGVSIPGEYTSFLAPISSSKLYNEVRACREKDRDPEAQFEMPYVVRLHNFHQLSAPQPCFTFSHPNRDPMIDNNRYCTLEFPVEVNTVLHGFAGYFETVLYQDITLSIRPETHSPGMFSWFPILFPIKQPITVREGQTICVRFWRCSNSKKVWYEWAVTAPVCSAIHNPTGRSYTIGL
T1 sequence (Q9BQA1 whole entry, chain 2 of 2): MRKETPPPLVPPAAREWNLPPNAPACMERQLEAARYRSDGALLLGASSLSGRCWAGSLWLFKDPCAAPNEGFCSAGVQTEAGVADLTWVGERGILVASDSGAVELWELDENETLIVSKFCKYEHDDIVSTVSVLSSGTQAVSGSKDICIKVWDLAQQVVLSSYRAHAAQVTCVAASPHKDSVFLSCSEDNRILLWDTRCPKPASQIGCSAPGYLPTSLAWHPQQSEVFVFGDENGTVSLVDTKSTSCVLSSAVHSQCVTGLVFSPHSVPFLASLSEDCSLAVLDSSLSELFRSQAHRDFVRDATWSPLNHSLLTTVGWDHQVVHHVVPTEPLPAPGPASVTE
T2 sequence (O14744 whole entry, one chain of several): as the sequence (O14744 whole entry, chain 1 of 2) above

Binder	binding result [1]	binding result [2]	binding result [3]	binding result [4]
B1	binds	–	–	–
B2	–	binds	binds	binds
B3	–	binds	–	–
B4	–	–	binds	–
